These results are taken from the RNAGym collection of RNA variant scans (doi:10.7554/elife.90254).

B1: LINE1-mini (parent)
chain: GGCAGAGCUCAACACAGCGUGGCAAAGUGGCUGUGGCUAGACUGCC

This data set covers variants of B1. The data set can be described thus: self-cleavage, relative activity (ratio to wild type); higher = more cleavage; in vitro, sequencing; the parent is a self-cleaving ribozyme.
For the variant GGGAGAGCUCAACACAGCGUGGCAAAGUGGCUGUGGCUAGAGUGCC [C3G C42G], the self-cleavage was 0.05. GGGAGAGCUCAACACAGCGUGGCAAAGUGGCUGUGGCUAGAUUGCC [C3G C42U]: the self-cleavage turned out to be 0.31.

GGGAGAGCUCAACACAGCGUGGCAAAGUGGCUGUGGCUAGAAUGCC [C3G C42A]: the self-cleavage was found to be 0.28. With GGGAGAACUCAACACAGCGUGGCAAAGUGGCUGUGGCUAGACUGCC [C3G G7A] the figure was 0.49; with GGAAGAGCUCAACACAGCGUGGCAAAGUGGCUGUGGCAAGACUGCC [C3A U38A], 0.34. With GGAAGAGCUCAACACAGCGUGGCAAAGUGGCUGUGGCGAGACUGCC [C3A U38G] the figure was 0.51. As for GGAAGAGCUCAACACAGCGUGGCAAAGUGGCUGUGGCCAGACUGCC [C3A U38C], the figure is 0.26. Turning to GGAAGAGCCCAACACAGCGUGGCAAAGUGGCUGUGGCUAGACUGCC [C3A U9C], the self-cleavage is 0.05. With GGAAGAGCGCAACACAGCGUGGCAAAGUGGCUGUGGCUAGACUGCC [C3A U9G], the self-cleavage was 0.57. As to GGAAGAGCACAACACAGCGUGGCAAAGUGGCUGUGGCUAGACUGCC [C3A U9A], the self-cleavage worked out at 0.59. Regarding GGGAGAGCUCAGCACAGCGUGGCAAAGUGGCUGUGGCUAGACUGCC [C3G A12G], the self-cleavage was 0.09.

In the case of GGGAGAGCUCAUCACAGCGUGGCAAAGUGGCUGUGGCUAGACUGCC [C3G A12U], the self-cleavage worked out at 0.43. On to GGGAGAGCUCACCACAGCGUGGCAAAGUGGCUGUGGCUAGACUGCC [C3G A12C], for which the self-cleavage turned out to be 0.19. As to GGGAGAGCUCAACACAGCGUGGCAAAGUGGCUGUGGCUAGACUGCA [C3G C46A], the self-cleavage was found to be 0.36. With GGGAGAGCUCAACACAGCGUGGCAAAGUGGCUGUGGCUAGACUGCU [C3G C46U], the self-cleavage came to 0.17. As for GGGAGAGCUCAACACAGCGUGGCAAAGUGGCUGUGGCUAGACUGCG [C3G C46G], the figure is 0.35; as for GGGAGAGAUCAACACAGCGUGGCAAAGUGGCUGUGGCUAGACUGCC [C3G C8A], 0.52.

In the case of GGGAGAGGUCAACACAGCGUGGCAAAGUGGCUGUGGCUAGACUGCC [C3G C8G], the self-cleavage was determined as 0.08.

Regarding GGGAGAGUUCAACACAGCGUGGCAAAGUGGCUGUGGCUAGACUGCC [C3G C8U], the self-cleavage worked out at 0.39.

As to GGGAGAGCUCAACACAGUGUGGCAAAGUGGCUGUGGCUAGACUGCC [C3G C18U], the self-cleavage turned out to be 0.54. Take GGGAGAGCUCAACACAGAGUGGCAAAGUGGCUGUGGCUAGACUGCC [C3G C18A]: the self-cleavage is 0.17. With GGGAGAGCUCAACACAGGGUGGCAAAGUGGCUGUGGCUAGACUGCC [C3G C18G], the self-cleavage turned out to be 0.15.

On to GGGAGAGCUCAAUACAGCGUGGCAAAGUGGCUGUGGCUAGACUGCC [C3G C13U], for which the self-cleavage came out at 0.37. With GGGAGAGCUCAAGACAGCGUGGCAAAGUGGCUGUGGCUAGACUGCC [C3G C13G], the self-cleavage was 0.55. For GGGAGAGCUCAAAACAGCGUGGCAAAGUGGCUGUGGCUAGACUGCC [C3G C13A], the self-cleavage came out at 0.48. With GGGAGAGCUCAACAAAGCGUGGCAAAGUGGCUGUGGCUAGACUGCC [C3G C15A] the figure was 0.18; with GGGAGAGCUCAACAGAGCGUGGCAAAGUGGCUGUGGCUAGACUGCC [C3G C15G], 0.04. Consider GGGAGAGCUCAACAUAGCGUGGCAAAGUGGCUGUGGCUAGACUGCC [C3G C15U], for which the self-cleavage was 0.25. Turning to GGAAGAGCUCAACACAGCGUGGCAAAGUGGCCGUGGCUAGACUGCC [C3A U32C], the self-cleavage was 0.31.

Consider GGAAGAGCUCAACACAGCGUGGCAAAGUGGCGGUGGCUAGACUGCC [C3A U32G], for which the self-cleavage was 0.15. Turning to GGAAGAGCUCAACACAGCGUGGCAAAGUGGCAGUGGCUAGACUGCC [C3A U32A], the self-cleavage turned out to be 0.12. As to GGGAGAGCUCAACACAGCGUGGUAAAGUGGCUGUGGCUAGACUGCC [C3G C23U], the self-cleavage is 0.81.

For GGGAGAGCUCAACACAGCGUGGAAAAGUGGCUGUGGCUAGACUGCC [C3G C23A], the self-cleavage is 0.47. Consider GGGAGAGCUCAACACAGCGUGGGAAAGUGGCUGUGGCUAGACUGCC [C3G C23G], for which the self-cleavage was 0.2. Take GGGAGAGCUCAACACAGCGUGGCAAAGUGGCUGUGGCUAGACUGUC [C3G C45U]: the self-cleavage amounted to 0.33. As to GGGAGAGCUCAACACAGCGUGGCAAAGUGGCUGUGGCUAGACUGAC [C3G C45A], the self-cleavage turned out to be 0.45. For the variant GGGAGAGCUCAACACAGCGUGGCAAAGUGGCUGUGGCUAGACUGGC [C3G C45G], the self-cleavage came out at 1.97. With GGGAGGGCUCAACACAGCGUGGCAAAGUGGCUGUGGCUAGACUGCC [C3G A6G] the figure was 0.08; with GGGAGCGCUCAACACAGCGUGGCAAAGUGGCUGUGGCUAGACUGCC [C3G A6C], 0.27; with GGGAGUGCUCAACACAGCGUGGCAAAGUGGCUGUGGCUAGACUGCC [C3G A6U], 0.79. With GGGCGAGCUCAACACAGCGUGGCAAAGUGGCUGUGGCUAGACUGCC [C3G A4C] the figure was 0.11; with GGGUGAGCUCAACACAGCGUGGCAAAGUGGCUGUGGCUAGACUGCC [C3G A4U], 0.36; with GGGGGAGCUCAACACAGCGUGGCAAAGUGGCUGUGGCUAGACUGCC [C3G A4G], 0.2.

As for GGAAGAGCUCAACACAGCGUGGCAAAGUGGCUGUGGCUAUACUGCC [C3A G40U], the self-cleavage turned out to be 0.21. In the case of GGAAGAGCUCAACACAGCGUGGCAAAGUGGCUGUGGCUAAACUGCC [C3A G40A], the self-cleavage was 0.16. As to GGAAGAGCUCAACACAGCGUGGCAAAGUGGCUGUGGCUACACUGCC [C3A G40C], the self-cleavage came out at 0.19. As for GGAAGAGCUCAACACAGCGUGGCAAAGUGGCUGUGGCUAGACGGCC [C3A U43G], the self-cleavage amounted to 0.04. Consider GGAAGAGCUCAACACAGCGUGGCAAAGUGGCUGUGGCUAGACCGCC [C3A U43C], for which the self-cleavage amounted to 0.28. As for GGAAGAGCUCAACACAGCGUGGCAAAGUGGCUGUGGCUAGACAGCC [C3A U43A], the figure is 0.39. With GGGAGAGCUCGACACAGCGUGGCAAAGUGGCUGUGGCUAGACUGCC [C3G A11G] the figure was 0.09. For the variant GGGAGAGCUCUACACAGCGUGGCAAAGUGGCUGUGGCUAGACUGCC [C3G A11U], the self-cleavage amounted to 0.03. As for GGGAGAGCUCCACACAGCGUGGCAAAGUGGCUGUGGCUAGACUGCC [C3G A11C], the self-cleavage was determined as 0.04. For the variant GGGAGAGCUCAACACAGCGUGGCAAAGUGGCUGUGGCUAGACUGCC [C3G], the self-cleavage was 0.48. As for GGAAGAGCUCAACACAGCGUGGCAAAGUGGCUGUGGCUAGACUCCC [C3A G44C], the self-cleavage is 0.86. As for GGAAGAGCUCAACACAGCGUGGCAAAGUGGCUGUGGCUAGACUACC [C3A G44A], the figure is 0.91; as for GGAAGAGCUCAACACAGCGUGGCAAAGUGGCUGUGGCUAGACUUCC [C3A G44U], 2.11.
